Results as given in the supplement of paper PMC9732359.
± gives the uncertainty stated by the source.

Assay: protein stability index of a GFP-peptide fusion (yeast GPS) (PSI 1-4); higher = more stable; sorted into four equal gates, so the index is relative within each strain
Method in brief: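 Mid-log yeast cultures in leucine-free medium, carrying a pooled plasmid library, were sorted into four equal gates by their GFP/Cherry fluorescence ratio. Each plasmid expressed Cherry along with GFP fused upstream of a tiled 17-residue yeast protein peptide. Plasmids recovered from each gate were PCR-amplified and Illumina-sequenced, with reads assigned to strains by barcodes. The protein stability index was obtained by summing each gate's read frequency weighted by its gate number.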

IKEENDMENMADEQKRS [ARP7]
protein stability index (doa10∆): 3.54 ± 0.17
protein stability index (pdr5∆): 3.48 ± 0.15
protein stability index (san1∆): 3.24 ± 0.095
protein stability index (ubr1∆): 3.19 ± 0.24

IKEKVQFNATINPESRE [ITC1]
protein stability index (doa10∆): 1.67 ± 0.046
protein stability index (pdr5∆): 1.6 ± 0.044
protein stability index (san1∆): 1.97 ± 0.073
protein stability index (ubr1∆): 2.07 ± 0.037

IKELLNITKNLKTFNGS [POP4]
protein stability index (doa10∆): 1.99 ± 0.13
protein stability index (pdr5∆): 2 ± 0.064
protein stability index (san1∆): 2.46 ± 0.056
protein stability index (ubr1∆): 2.21 ± 0.047

IKGQCLATLLGHNDWVS [ASC1]
protein stability index (doa10∆): 1.37 ± 0.083
protein stability index (pdr5∆): 1.69 ± 0.083
protein stability index (san1∆): 1.72 ± 0.11
protein stability index (ubr1∆): 1.65 ± 0.066

IKHKHKKVKLAVLSYYK [RPS31]
protein stability index (doa10∆): 2.23 ± 0.047
protein stability index (pdr5∆): 2.59 ± 0.074
protein stability index (san1∆): 2.37 ± 0.073
protein stability index (ubr1∆): 2.25 ± 0.048

IKIEPSADDDVNNGNIP [SIR3]
protein stability index (doa10∆): 2.12 ± 0.098
protein stability index (pdr5∆): 2.44 ± 0.14
protein stability index (san1∆): 2.58 ± 0.15
protein stability index (ubr1∆): 2.76 ± 0.13

IKKVICGAWEPAITIEK [SIR3]
protein stability index (doa10∆): 2.15 ± 0.094
protein stability index (pdr5∆): 2.45 ± 0.087
protein stability index (san1∆): 2.47 ± 0.1
protein stability index (ubr1∆): 2.58 ± 0.084

IKLDIVVGQNQLIDQFE [SNF5]
protein stability index (doa10∆): 1.88 ± 0.075
protein stability index (pdr5∆): 2.07 ± 0.098
protein stability index (san1∆): 2.11 ± 0.092
protein stability index (ubr1∆): 2.25 ± 0.085

IKPKIALQDKEITSVLS [SNF12]
protein stability index (doa10∆): 2.31 ± 0.082
protein stability index (pdr5∆): 2.39 ± 0.1
protein stability index (san1∆): 2.36 ± 0.16
protein stability index (ubr1∆): 2.28 ± 0.093

IKRTDEGGEAEFIFGTY [ARP7]
protein stability index (doa10∆): 3.35 ± 0.093
protein stability index (pdr5∆): 3.3 ± 0.11
protein stability index (san1∆): 3.37 ± 0.056
protein stability index (ubr1∆): 3.36 ± 0.045

IKVTVQLKIQNRQAAAS [RPL12A]
protein stability index (doa10∆): 1.57 ± 0.052
protein stability index (pdr5∆): 2 ± 0.052
protein stability index (san1∆): 1.75 ± 0.1
protein stability index (ubr1∆): 2.16 ± 0.04

ILDLKEFDRRILKKSLM [RTT102]
protein stability index (pdr5∆): 3.47 ± 0.23
protein stability index (san1∆): 3.19 ± 0.099
protein stability index (ubr1∆): 3.22 ± 0.28

ILDNINHNGSALLIEVF [ITC1]
protein stability index (doa10∆): 1.13 ± 0.096
protein stability index (pdr5∆): 1.22 ± 0.076
protein stability index (san1∆): 1.14 ± 0.13
protein stability index (ubr1∆): 1.22 ± 0.07

ILDNTENYDDTELRQLF [DSN1]
protein stability index (doa10∆): 3.15 ± 0.066
protein stability index (pdr5∆): 3.28 ± 0.068
protein stability index (san1∆): 3.37 ± 0.042
protein stability index (ubr1∆): 3.29 ± 0.05

ILDPQVTRFTTWNGSPF [YJL039C/NUP192]
protein stability index (doa10∆): 1.26 ± 0.09
protein stability index (pdr5∆): 2.03 ± 0.12
protein stability index (san1∆): 1.51 ± 0.17
protein stability index (ubr1∆): 2.56 ± 0.12

ILDTSQSESRQKRQLHD [SNU114]
protein stability index (doa10∆): 3.23 ± 0.11
protein stability index (pdr5∆): 3.12 ± 0.084
protein stability index (san1∆): 1.72 ± 0.24
protein stability index (ubr1∆): 3.01 ± 0.048

ILEELDFVRNELNDIDT [SMC3]
protein stability index (doa10∆): 3.08 ± 0.2

ILERAYKKLDIDGKVIQ [SNF2]
protein stability index (doa10∆): 3.16 ± 0.083
protein stability index (pdr5∆): 3.34 ± 0.076
protein stability index (san1∆): 3.05 ± 0.042
protein stability index (ubr1∆): 3 ± 0.058

ILHGSKSQEQREHSLQL [PRP28]
protein stability index (doa10∆): 3.11 ± 0.1
protein stability index (pdr5∆): 2.69 ± 0.089
protein stability index (san1∆): 2.92 ± 0.067
protein stability index (ubr1∆): 2.35 ± 0.041

ILKSLKNRSNRKRFHSQ [YOR098C/NUP1]
protein stability index (doa10∆): 3.08 ± 0.061
protein stability index (pdr5∆): 3.22 ± 0.066
protein stability index (san1∆): 3.03 ± 0.081
protein stability index (ubr1∆): 3.11 ± 0.042

ILNLLNILTTHLSHPGT [ECM29]
protein stability index (doa10∆): 2.03 ± 0.042
protein stability index (pdr5∆): 1.75 ± 0.04
protein stability index (san1∆): 1.65 ± 0.05
protein stability index (ubr1∆): 1.76 ± 0.037

ILNLYSSAHLIRINDEP [YML103C/NUP188]
protein stability index (doa10∆): 1.99 ± 0.096
protein stability index (pdr5∆): 2.18 ± 0.18
protein stability index (san1∆): 1.8 ± 0.26
protein stability index (ubr1∆): 1.77 ± 0.092

ILSGFHNAGPVAGAGAA [RPP1B]
protein stability index (doa10∆): 3.01 ± 0.072
protein stability index (pdr5∆): 2.97 ± 0.061
protein stability index (san1∆): 2.74 ± 0.07
protein stability index (ubr1∆): 2.65 ± 0.099

ILSINAIDYEPEYEKAM [SMC1]
protein stability index (doa10∆): 3.29 ± 0.076
protein stability index (pdr5∆): 3.1 ± 0.068
protein stability index (san1∆): 3.05 ± 0.049
protein stability index (ubr1∆): 3.13 ± 0.043

ILSKKWGFTNLDRPEYL [RPL10]
protein stability index (ubr1∆): 2.89 ± 0.26

ILTKEVQGSTLAQLTSK [RPS1A]
protein stability index (doa10∆): 3.27 ± 0.084
protein stability index (pdr5∆): 3 ± 0.08
protein stability index (san1∆): 3.2 ± 0.072
protein stability index (ubr1∆): 2.93 ± 0.15

ILVFQVSMKANKYQIKK [RPL25]
protein stability index (doa10∆): 1.93 ± 0.052
protein stability index (pdr5∆): 2.2 ± 0.054
protein stability index (san1∆): 3.09 ± 0.046
protein stability index (ubr1∆): 3.03 ± 0.045

ILVKRYSIEMKPYSGKL [ECM29]
protein stability index (doa10∆): 1.58 ± 0.048
protein stability index (pdr5∆): 1.76 ± 0.049
protein stability index (san1∆): 1.79 ± 0.073
protein stability index (ubr1∆): 2.43 ± 0.044

IMECCQKNDTAAFKDIA [RRP40]
protein stability index (doa10∆): 3.08 ± 0.16
protein stability index (pdr5∆): 3.54 ± 0.17
protein stability index (san1∆): 2.95 ± 0.084
protein stability index (ubr1∆): 3.54 ± 0.077

IMNMIENVEKKEAALKT [SMC2]
protein stability index (doa10∆): 1.76 ± 0.082
protein stability index (pdr5∆): 1.83 ± 0.079
protein stability index (san1∆): 1.67 ± 0.092
protein stability index (ubr1∆): 1.69 ± 0.05

INELTLLVQKRFKYAPG [RPS3]
protein stability index (doa10∆): 2.83 ± 0.2
protein stability index (pdr5∆): 2.81 ± 0.14
protein stability index (san1∆): 2.75 ± 0.12
protein stability index (ubr1∆): 2.96 ± 0.13

INFERIDEVFSWYLNTF [GRR1]
protein stability index (doa10∆): 2.22 ± 0.058
protein stability index (pdr5∆): 1.91 ± 0.044
protein stability index (san1∆): 2.51 ± 0.1
protein stability index (ubr1∆): 1.82 ± 0.051

INFKSREAIRPGHEMED [AAR2]
protein stability index (doa10∆): 3.33 ± 0.097
protein stability index (pdr5∆): 3.28 ± 0.091
protein stability index (san1∆): 3.44 ± 0.058
protein stability index (ubr1∆): 3.38 ± 0.084

INIDDLLYELTAFKATV [YJL039C/NUP192]
protein stability index (doa10∆): 2.58 ± 0.052
protein stability index (pdr5∆): 2.67 ± 0.055
protein stability index (san1∆): 2.41 ± 0.054
protein stability index (ubr1∆): 2.44 ± 0.043

INKEIFHHWLVEFINKM [SRB8]
protein stability index (doa10∆): 1.49 ± 0.17
protein stability index (pdr5∆): 1.76 ± 0.12
protein stability index (san1∆): 3.03 ± 0.053
protein stability index (ubr1∆): 1.6 ± 0.088

INQEKPVKLDENSANST [SIR4]
protein stability index (san1∆): 3.51 ± 0.18

INQYQLLYNLKNDILTN [SWI1]
protein stability index (doa10∆): 1.63 ± 0.038
protein stability index (pdr5∆): 1.33 ± 0.049
protein stability index (san1∆): 1.28 ± 0.1
protein stability index (ubr1∆): 1.18 ± 0.036

INSGLYSVLLESPLSVA [YML103C/NUP188]
protein stability index (doa10∆): 1.47 ± 0.058
protein stability index (pdr5∆): 1.18 ± 0.066
protein stability index (san1∆): 1.15 ± 0.18
protein stability index (ubr1∆): 1.14 ± 0.053

INYLALNAANYNIDANV [ECM29]
protein stability index (pdr5∆): 2.76 ± 0.2
protein stability index (ubr1∆): 2.72 ± 0.13

IPDLSIQNDIYLNDLMI [RPN12]
protein stability index (doa10∆): 2.99 ± 0.046
protein stability index (pdr5∆): 3.06 ± 0.042
protein stability index (san1∆): 2.99 ± 0.044
protein stability index (ubr1∆): 3.02 ± 0.046

IPGGPKFEPLYPREEEE [PRP8]
protein stability index (doa10∆): 3.01 ± 0.11
protein stability index (pdr5∆): 2.78 ± 0.15
protein stability index (san1∆): 3.01 ± 0.11
protein stability index (ubr1∆): 2.91 ± 0.13

IPKPRTAGKTSVKSART [SNF2]
protein stability index (doa10∆): 3.38 ± 0.1
protein stability index (pdr5∆): 3.26 ± 0.069
protein stability index (san1∆): 2.89 ± 0.065
protein stability index (ubr1∆): 3.09 ± 0.048

IPLNRLSLDSDVKFPSN [SMC3]
protein stability index (doa10∆): 1.69 ± 0.059
protein stability index (pdr5∆): 1.92 ± 0.064
protein stability index (san1∆): 2.05 ± 0.11
protein stability index (ubr1∆): 1.99 ± 0.054

IPRNSPLSDLKKRSQAK [RPC82]
protein stability index (doa10∆): 2.65 ± 0.26
protein stability index (pdr5∆): 3.17 ± 0.22

IPSLANNGNNSTSIQYH [POP6]
protein stability index (doa10∆): 2.45 ± 0.054
protein stability index (pdr5∆): 2.95 ± 0.06
protein stability index (san1∆): 2.47 ± 0.066
protein stability index (ubr1∆): 2.59 ± 0.046

IPSSKYAYMMNSQSPRG [YLR018C/POM34]
protein stability index (doa10∆): 2.78 ± 0.062
protein stability index (pdr5∆): 2.69 ± 0.066
protein stability index (san1∆): 2.75 ± 0.044
protein stability index (ubr1∆): 2.75 ± 0.045

IPVIALTDLDSPSEFVD [RPS0A]
protein stability index (doa10∆): 2.68 ± 0.095
protein stability index (pdr5∆): 2.69 ± 0.091
protein stability index (san1∆): 2.74 ± 0.096
protein stability index (ubr1∆): 2.42 ± 0.06

IQELRKLLKSLLLNYLE [MED7]
protein stability index (doa10∆): 1.71 ± 0.056
protein stability index (pdr5∆): 1.24 ± 0.069
protein stability index (san1∆): 1.12 ± 0.12
protein stability index (ubr1∆): 1.04 ± 0.1

IQHVGMINGRKLIKFET [FAS1]
protein stability index (doa10∆): 2.82 ± 0.072
protein stability index (pdr5∆): 2.85 ± 0.074
protein stability index (san1∆): 3.05 ± 0.085
protein stability index (ubr1∆): 2.81 ± 0.041

IQKGKFTLLDFKKQMQT [SRP54]
protein stability index (doa10∆): 1.27 ± 0.13
protein stability index (pdr5∆): 1.85 ± 0.22
protein stability index (san1∆): 1.07 ± 0.21
protein stability index (ubr1∆): 1.7 ± 0.29

IQSQVFESLYNSNDSVF [BRR2]
protein stability index (doa10∆): 2.04 ± 0.053
protein stability index (pdr5∆): 2.31 ± 0.057
protein stability index (san1∆): 1.59 ± 0.097
protein stability index (ubr1∆): 2.09 ± 0.046

IRAGEFDVVLTTFEYII [SNF2]
protein stability index (doa10∆): 2.31 ± 0.14
protein stability index (pdr5∆): 2.56 ± 0.13
protein stability index (san1∆): 2.37 ± 0.11
protein stability index (ubr1∆): 2.59 ± 0.12

IRAHQTELTHHLLPRNE [QCR7]
protein stability index (doa10∆): 2.99 ± 0.1
protein stability index (pdr5∆): 3.2 ± 0.072
protein stability index (san1∆): 3.02 ± 0.064
protein stability index (ubr1∆): 2.92 ± 0.065
